Reference: US20200239562A1 (ANAPTYSBIO, published 2020)

Target: T1, human IL-33 (human, UniProt O95760 112-270, limits assumed)
T1 construct: also called Interleukin-33
T1 sequence (looked up): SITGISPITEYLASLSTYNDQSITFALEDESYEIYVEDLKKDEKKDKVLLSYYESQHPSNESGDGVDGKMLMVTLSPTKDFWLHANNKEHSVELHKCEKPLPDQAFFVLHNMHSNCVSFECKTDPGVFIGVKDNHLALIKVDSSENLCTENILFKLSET
Test: method not stated

Kd: ~1 pM
B1: ANB020 (antibody, V domains shown)
VH: QVQLMQSGAEVKKPGASVKVSCKASGYTFTSYWMHWVRQAPGQGLEWMGTIYPRNSNTDYNQKFKARVTMTRDTSTSTVYMELSSLRSEDTAVYYCARPLYYYLTSPPTLFWGQGTLVTVSS
VL: DIQLTQSPSFLSASVGDRVTLTCKASQDVGTAVAWTQQKPGKAPKLLIYWASTRHTGVPSRFSGSGSGTEFTLTISSLQPEDFATYYCQQAKTYPFTFGSGTKLEIK
